# The supplement of paper PMC9170038
# Test system: MS2 coat protein
# Test: apparent KD of MS2 coat protein; designed switch direction (-1 OFF switch, 1 ON switch): -1; higher = weaker reporter binding
# Procedure, shortened: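 The buffer was Tris-HCl pH 7.5 with KCl, MgCl2, BSA, DTT, tRNA and Tween-20. In it, SNAP-549-labelled MS2 coat protein was titrated in doubling steps from 0.7 or 1.5 nM to 3 µM over chip-bound RNA switches transcribed by stalled E. coli RNA polymerase on Illumina chips. Apparent KD is the per-design median over clusters of curve fits to normalised fluorescence.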
# [1] = Eterna round: R95, input ligand: microRNA oligo, concentration not stated
# [2] = input ligand: microRNA oligo, concentration not stated
# [3] = Eterna round: R95, input ligand: FMN 200 uM
# [4] = Eterna round: R95, input ligand: none
Sequence,apparent KD of MS2 coat protein (input ligand: FMN 200 uM) [nM],apparent KD of MS2 coat protein (input ligand: none) [nM],apparent KD of MS2 coat protein [1] [nM],apparent KD of MS2 coat protein [2] [nM],apparent KD of MS2 coat protein [3] [nM],apparent KD of MS2 coat protein [4] [nM]
"CACACCUCCGUCAGGAUAUUAAGGCACCGCCGCCAUGAGAAGGGACAUGAGGAUCACCCAUGUUAAUCGUGGAA [Betibier] (Eterna round: R97, puzzle: Brourd's mod of Exclusion 4)",226,20.5,,,,
CACCAGCGAGGAUAUACACGUGGUCUCCACUCCCGGUGGUAACAUGAGGAUCACCCAUGUAGAAGGCGCAACAU [Gecedi] (puzzle: Exclusion 2),,,44.8,,,
"CACCGUUACAGAGGAUAUGGUACAUGAGGAUCACCCAUGUAAUAAAUGAGAAUUUCGGAUGUAUUCCAGAAGGCUGAAAUCGGC [Ostricism 64 - Jieux - Exclusion NG 2] (Eterna round: R96, puzzle: Exclusion NG 2)",50.2,46.8,,30.2,,
"CACCGUUACCUAGGAUAUAGUACAUGAGGAUCACCCAUGUAAUAAAUGAGAAUUUCGGAUGUAUGCUAGAAGGAGGAAAUCGGC [Ostricism 49 - Jieux - Exclusion NG 2] (Eterna round: R96, puzzle: Exclusion NG 2)",,,,29.7,,
"CACCGUUACGUAGGAUAUGUUACAUGAGGAUCACCCAUGUAAUAAAUGAGAAUUUCGAAUGUAAUACAGAAGGACGGAAUCGGC [Ostracism 70 - Jieux - Exclusion NG 2] (Eterna round: R96, puzzle: Exclusion NG 2)",53.3,32,,26,,
"CACCGUUAUAUAGGAUAUGUUACAUGAGGAUCACCCAUGUAAUAAAUGAGAAUUUCGAAUGUAAUACAGAAGGAUAGAAUCGGC [Ostracism 72 - Jieux - Exclusion NG 2] (Eterna round: R96, puzzle: Exclusion NG 2)",27.2,22.9,,18.1,,
"CACCUGAAGAGAGGAUAUGAUACAUGAGGAUCACCCAUGUAAUAAAUGAGAAUUUCGAAUGUAAUUCAGAAGGCUCAAUAAGGC [Ostricism 94 - Jieux - Exclusion NG 2] (Eterna round: R96, puzzle: Exclusion NG 2)",107,52,,50.8,,
"CACGGACGAUAAGGAUAUGUUAUAGCUCAAACAGCAGAAGGUGUUAAACCACCGUCACAUGAGGAUCACCCAUGUGUGACAGUU [Eternabot solution 34] (Eterna round: R96, puzzle: Exclusion NG 1)",46.5,40.3,,30.7,,
"CACUUACAUGAGGAUCACCCAUGUGAGGAUAUCGUGACCAGACGAGAAGUCUAUGUCACGAGAAGGCACUUGGG [Exclusion 1 (Mod 2 solution 97 by Eternabot)] (Eterna round: R97, puzzle: Exclusion 1)",114,314,,,,
"CAGAACAGAGGAUAUACAUGAGGAUCACCCAUGUGUUCCAGCUAGGAGACUAGCAUAUGUAGAAGGCUGUUCUG [Mat - Exclusion 3 - JL Mod - D12] (Eterna round: R97, puzzle: Exclusion 3)",87.7,161,,,,
"CAGAAUUGAGGAUAUGAUCAAUUUAACAUGAGGAUCACCCAUGUAUGGGAAUGAUUCUGAUCAGAAGGCGAUUCUU [Exclusion 5: 1:a] (Eterna round: R96, puzzle: Exclusion 5)",960,633,,511,,
CAGAAUUGAGGAUAUGAUCAAUUUAACAUGAGGAUCACCCAUGUAUGGGAAUGAUUCUGAUCAGAAGGCGAUUCUU [Exclusion 5: 1:a] (puzzle: Exclusion 5),,,285,,257,461
"CAGCCCUGAGGAUAUACAUGAGGAUCACCCAUGUGAAGAACGGGAAACGAAACCCUCAGUAGAAGGCGGGUCAU [Eternabot (Original) Solution 14] (Eterna round: R97, puzzle: Exclusion 3)",131,58.9,,,,
"CAGCUGAAAGUGAGGAUAUCUAGAGCGAUAGCUCUAGAGAAGGCACAUGAGGAUCACCCAUGUGAUCACAGCUG [BmEx4/7-A4] (Eterna round: R97, puzzle: Brourd's mod of Exclusion 4)",1320,249,,,,
"CAGCUGAAAGUGAGGAUAUCUAGAGCUGCGGCUCUAGAGAAGGCACAUGAGGAUCACCCAUGUCUCAACAGCUG [BmEx4/1-A3] (Eterna round: R97, puzzle: Brourd's mod of Exclusion 4)",51.9,18.1,,,,
"CAGCUGAAUGUGAGGAUAUGUCGAGCCUCGGCUCGAUAGAAGGCACAUGAGGAUCACCCAUGUCUCAACAGCUG [BmEx4/2-C2] (Eterna round: R97, puzzle: Brourd's mod of Exclusion 4)",258,34,,,,

Sequence,apparent KD of MS2 coat protein (input ligand: FMN 200 uM) [nM],apparent KD of MS2 coat protein (input ligand: none) [nM],apparent KD of MS2 coat protein [1] [nM],apparent KD of MS2 coat protein [2] [nM],apparent KD of MS2 coat protein [3] [nM],apparent KD of MS2 coat protein [4] [nM]
"CAGGAUAGAGGAUAUACAUAGAUACAGAUUCAUGUGAUCCUACAUGAGGAUCACCCAUGUAGAAGGCUAUCCUG [Fiskers Ex 2 - 21] (Eterna round: R96, puzzle: Exclusion 2)",216,348,,321,,
CAGGAUAGAGGAUAUACAUAGAUACAGAUUCAUGUGAUCCUACAUGAGGAUCACCCAUGUAGAAGGCUAUCCUG [Fiskers Ex 2 - 21] (puzzle: Exclusion 2),,,240,,,
"CAGGCGUCUGUGCGUGGUGACAUGAGGAUCACCCAUGUUUUGCUCGUUUUGUCUUGGGCUCGGCGCCCGGGUUCGGG [-24.5, -48.6, A 9%] (Eterna round: R97, puzzle: Sensor, turn-off variant 1)",181,208,,,,
"CAGGGCAUAGGAUAUGCGGGUAAACACCAUGCAUUAGAAUGACAUGAGGAUCACCCAUGUAGAAGGAUGAUAGC [Eternabot (L1) Solution 98] (Eterna round: R97, puzzle: Exclusion 2)",28.3,29.2,,,,
CAGGUCCGAGGAUAUAUUAUGUGAAACAUGAGGAUCACCCAUGUUAUAUGAUGGAUGUAAAUAGAAGGCGGACUUG [Mat - Exclusion 5 - JL mod - D64] (puzzle: Exclusion 5),,,29.3,,23.9,35.3
CAGUACUGAGGAUAUACAUGAGGAUCACCCAUGUGCUCAAAGUAGGAUACUACUAUUAGUAGAAGGCAGUACUG [Fiskers Ex 3 828 mod 21] (puzzle: Exclusion 3),,,23.5,,,
CAGUACUGAGGAUAUACAUGAGGAUCACCCAUGUGCUUUAGCUAGGAUACUAGCAUCAGUAGAAGGCAGUACUG [Fiskers Ex 3 828 mod 11] (puzzle: Exclusion 3),,,12.9,,,
"CAGUACUGAGGAUAUACAUGAGGAUCACCCAUGUGUCCUAUAUUAGGAAACUAGGUAUGUAGAAGGCAGUACUG [Omei Ex3 Mod of Eli 4.27 v5] (Eterna round: R97, puzzle: Exclusion 3)",485,340,,,,
"CAGUACUGAGGAUAUACAUGAGGAUCACCCAUGUGUCUAAUAUUAGGAAACUAGGUAUGUAGAAGGCAGUACUG [Omei Ex3 Mod of Eli 4.27 v6] (Eterna round: R97, puzzle: Exclusion 3)",318,36.1,,,,
CAGUACUGAGGAUAUACAUGAGGAUCACCCAUGUGUUCCAGCUAGGAAACUAGCAAAAGUAGAAGGUAGUACUG [salish99_ex3_r3_086 (!)] (puzzle: Exclusion 3),,,14.7,,,
CAGUACUGAGGAUAUACAUGAGGAUCACCCAUGUGUUCCAGCUAGGAAGCUAGCAAAAGUAGAAGGCAGUACUG [salish99_ex3_r3_073] (puzzle: Exclusion 3),,,26.6,,,
CAGUACUGAGGAUAUACAUGAGGAUCACCCAUGUGUUCGAGCUAGGAAACUAGCAAAAGUAGAAGGCAGUACUG [salish99_ex3_r3_080] (puzzle: Exclusion 3),,,15.4,,85.2,14.9
"CAGUUUUGAGUGAGGAUAUGUGAUCCAAAGGGUCAACAGAAGGCACAUGAGGAUCACCCAUGUAAUCCAAUUGG [Eternabot (L2) Solution 37] (Eterna round: R97, puzzle: Brourd's mod of Exclusion 4)",1520,3760,,,,
CAUACUAAAGUCAGGAUAUGCAGUCGAAUACGGGUGUAGAAGGGACAUGAGGAUCACCCAUGUAGAUAGUAAAG [EX-4 Malc #20] (puzzle: Brourd's mod of Exclusion 4),,,48.9,,37.9,42.2
CAUACUGAAGUUAGGAUAUGCGGCCGAAUACGGAUGUAGAAGGGACAUGAGGAUCACCCAUGUAGAUAGUAAAG [EX-4 Malc #15] (puzzle: Brourd's mod of Exclusion 4),,,20.1,,20.8,20.5
